The target of the data set is T1, nPfh1-K338A (His6-Trx-nPfh1-K338A-FLAG) (Schizosaccharomyces pombe, UniProt Q9UUA2 =MG+22-805, K338A;internal_change).
T1 sequence: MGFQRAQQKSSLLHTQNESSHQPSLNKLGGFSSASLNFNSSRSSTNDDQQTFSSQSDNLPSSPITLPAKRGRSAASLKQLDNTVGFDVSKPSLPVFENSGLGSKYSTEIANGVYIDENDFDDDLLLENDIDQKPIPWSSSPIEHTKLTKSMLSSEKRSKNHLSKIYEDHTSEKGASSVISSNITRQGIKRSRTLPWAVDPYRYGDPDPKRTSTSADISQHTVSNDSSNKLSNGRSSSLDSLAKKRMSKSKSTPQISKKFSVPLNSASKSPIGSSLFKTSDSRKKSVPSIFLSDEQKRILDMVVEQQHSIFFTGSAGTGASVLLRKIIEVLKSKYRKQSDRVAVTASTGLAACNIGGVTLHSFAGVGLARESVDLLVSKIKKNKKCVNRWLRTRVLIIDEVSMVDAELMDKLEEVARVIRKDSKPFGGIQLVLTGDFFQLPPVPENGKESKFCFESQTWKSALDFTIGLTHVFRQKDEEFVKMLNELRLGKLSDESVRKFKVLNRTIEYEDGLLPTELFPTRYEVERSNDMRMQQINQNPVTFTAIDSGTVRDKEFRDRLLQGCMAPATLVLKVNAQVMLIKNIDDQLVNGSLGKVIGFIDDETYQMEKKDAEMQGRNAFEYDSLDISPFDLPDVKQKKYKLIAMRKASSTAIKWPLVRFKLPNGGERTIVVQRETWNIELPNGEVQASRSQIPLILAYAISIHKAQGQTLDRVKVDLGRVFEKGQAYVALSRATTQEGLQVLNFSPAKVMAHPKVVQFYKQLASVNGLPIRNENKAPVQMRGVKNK
The experiment in a line: EMSA.

For the molecule AAAAAAAAAA (ssDNA) [Poly(A)10], the binding result is listed as “no binding”.
